The text below walks through data of the DeepSol protein solubility set.

This data set is described as follows: soluble on expression in E. coli; label from the status in PepcDB or PDB records.
“MSLKITGFRSLTTVHRWGRPVGDANGFVAQGVTEVPVLLVETDGGLTGVGLGAHGDAERVFPALDGQDPRAVTTLYDRMLAHTFKSGHAGTAFGTIGAFDTALWDLKAKMAGEPLWRTLGAADRFVPGYASGLDIALDEEELVALYSGWAARGFTGAKLKGGLDTERDIGRLRAVAEVLRPNTRSPALMLDVNESWGRHQAVRLLARIEDRVELAWIEEPVRRWDARGHRAVGRAGRTAVASGENLTGLEQFRPLLAADALQVVQAAGVWGITHFLRVATLAHGHDLPVSPVGYHANPLAHAAAAVPNHLVTEVQDIGTPAGLTVDQAIEDGGIVLGDAPGLGITVDESALAAPRQNAGWARPDGPHVRPRDAGLRLVPEPGPPGPAARVRAGTPSLGVPGPVHRPARSEHTERENTPEGHHHHHH”: the “soluble on expression in E. coli” value is “not soluble”.

Take “MSNDIEKSIQQWLEKKLEERGHGAQIELAAYLGIHPSTISRMLNPYKNGKSRSISIGELVKIAEFFKVSPPQISSLMLIKNS”: the “soluble on expression in E. coli” value is reported as “not soluble”.

Regarding “MAIPSRSPLASRALSFLGALSLLTFAATPVLAESTPTAAPPQFAVESPKAASSLLLSVAHAGKRLVAVGDRGHILLSDDDGKTWTQAKVPTRQLLTSVFFVNERKGWAVGHDAQILVSDDAGSTWARQFEDLGREAPLLDIWFADEQHGLAVGAYGALLETRDGGQHWEDVSERLDNEDQFHLNAIAAVKDNGLLVVGEAGSLFRSKDWGATWEKLEGPYEGSLFGAIGTADAGGVLVYGLRGHLFRSADFGDSWEEIPLKAASGDLEFGLSDGALLADGRIVVVGHGGSVLESTDGGRSFSVFNRPDRLSLAGVSATGDGHLILVGQGGVHLAAANGAALEQQQLEHHHHHH”, the “soluble on expression in E. coli” value is on record as “soluble”.

For “MSLRPYQEKARLFLNGEMSATLFVELGIATSCRKGLKKGFFNQDDFFAYQCDEWGLYGVFDGHGPGGHLVANFVQWHLPNIIHEYMITSEPRVALHRAFVEVNSMLTDASEAQKFDSASSGSTASVVLHRRQERKLFLAHVGDSRVVLARRNHQGRLVADCVTKDHKPDDPVERARIERHGGEVRRPTGHIPHRVFLKGKNYPGLAMSRSIGDSMGHCAGVTSEPDISDIDLLEDRDEVVIMCTDGVWEFMTPDEVVDIVSRYSIYQADEAAQELSREAWKRWLEQDGHSVDDITVQIIHLFPPAEEKHPEGHHHHHH”, the “soluble on expression in E. coli” value is given as “soluble”.

Turning to “MDPFGTYKTAISARATDKAILKKSQDGGIISASYIYGLENGLLDGVIVANTEDGFKAAPKIATTPEEVLSAAGTKYTVSPNVSVLKDAVREYALEKVGIVGTPCQVRAIRKLMKYPMGFRHTDSKIALVMGIFCMENFPYEGMKAIVEQYAGIRMNDVLKTDIGKGKFWVYSKSGDVKAVPLKDTHMYEQKSCHVCMDYTAELADISTGSVGSPDGWSTIFVRTAKGEEYLNKMVEAGALETKPIDDVKPGLDLVQKLALQKKEKNDKEIAHRKEIGLPVPYLEHHHHHH”, the “soluble on expression in E. coli” value is recorded as “not soluble”.

“EVVVVGYGTQKKVNLTGAVSAVSAEDLASKPVMSTAQALAGLAPGLSVLQTSGRPGQGATVKIRGTGTFSKAGTDPLVLIDGLSGNIDDVDPNDIQSISFLKDAASASIYGNRAANGVILIETKKGA”: the “soluble on expression in E. coli” value is reported as “not soluble”.

Turning to “MKKVYFATKADVERLHSFFGQANKKDDKINELYAQFMILEEAEEIRAVIGYEQSGEDVLIRSCLFTPHVDKQTFLYFFEMFLQYMKEKSVQQLYLLTNHPQSVPIFQFFDFFTIEKDEVPEGIQQLEHFCKNIKEQNAIILNCQLFTKLSTD”, the “soluble on expression in E. coli” value was “not soluble”.

Take “MQHPTTKYVKLSFALIFLFNIASASIFSDDVTEATSSPDTTTTAVAIRAKRQCGGMGGCCGGMSGCGCGSMGMCGQTCCPSAPPPCSCGTPGCMQCVQQTVLVPVTTTTCCKCCQPVCTNACTNGGGCSCGCTRGGCSRKRRSLLAIASEEMSKRGDVMV”: the “soluble on expression in E. coli” value is “not soluble”.

For the sequence “GSHMIAPLSVKDNDKWVDTHVGKTTEIHLKGNPTTGYMWTRVGFVGKDVLSDEILEVVCKYTPTPSSTPMVGVGGIYVVLVKPRKRGHHTLELVYTRPFEGIKPENERYTLHLNVK”, the “soluble on expression in E. coli” value was “soluble”.

On to “MSLKFFPTRTLLCLCIAAPCLPAIAQNDPIELPDIGTVAGSTLTIDQELIYGDAYMRMLRNNQPVINDPVLNEYIDNLGHRLVASANDVKTPFTFFMIRDRNINAFAFFGGYVALHSGLFLHAQSESELASVMAHEIAHVTQRHLARSMEEQARRSPATIAALAGSLLLAIAAPEAGIAAINATMAGSIQGQINYTRSNEKEADRFGIATLAKAGFDANAMPQFFTRLADEYRYASKPPPMLLTHPLPEDRITDSRERARQYPPLKLAPHLDYHLARARIIARYAGIDADAALDWFARSEKKIDATLQPSIQYGKALVYLDLKQFDKAEPLLTQLVKEQPDNHFYLDAISDLYIELKQADKAQSLLEKALKQTPNNSVLTINYANVLLKQDKFTDAIRILQRYTHDNPNDINGWQLLSEANSRLGNSAEDLAARGEIMALQANWNKAIQFYTQASQLVELGSLAQARYDARIDQLMVQRERFLSLQEGGSHHHHHH”, for which the “soluble on expression in E. coli” value was “soluble”.

Turning to “MNKRENPIYKVIFLNQGQVFEMYAKQIYQSDLWGFLEIEEFVFGERTQVVVDPSEEKLKAQFEGVLRSFVPMHAIVRIDEVERLGTPKISEAKGAGNVMPFPMPMPGKSD”, the “soluble on expression in E. coli” value is recorded as “not soluble”.

For “MNYSRIAEAIEYIRAHYKEQPGLDEVAEKVHLSPFHFQRIFTEWAGLEHHHHHH”, the “soluble on expression in E. coli” value is recorded as “not soluble”.

Regarding “MVMKREVVGYTTMSEHLIDTQLTRSPFFFASANQSMLGCGVAHAFQQAIPFAELANQAKQLLQQAKRDECDNPLLFGIVPFDPKTPTRFMIPRTLYVSSSPRLNRPAHLTRQVAKLISSPSGEQYKQGVSHLLNMFHHSGLSKVVLSRAIEIATEQEIALPTLLRSLLAINHHGYTFAASLDEQRKLIGASPELLVAKRGNYLISNPLAGSRPRSQDAQENAQRRASLLNTAKDLHEHGLVVEEVERIMSRYCRNLYTPMVPSVIETETMLHLSTLLEGQVSDPEVCALQVAADLHPTPAVCGFPRESAYQAIRELEEFDRGYFTGMVGWCDARGNGEWVVTIRCAEVGSHQMKLFAGAGIVDESLPQSELEETGAKMKTILAAAGIELNDVLTA”, the “soluble on expression in E. coli” value was “not soluble”.

Consider “GLVLPHTEFQPAPKQDSSPHLTSQRPVDMVQLLKKYPIVWQGLLALKNDTAAVQLHFVSGNNVLAHRSLPLSEGGPPLRIAQRMRLEATQLEGVARRMTVETDYCLLLALPCGRDQEDVVSQTESLKAAFITYLQAKQAAGIINVPNPGSNQPAYVLQIFPPCEFSESHLSRLAPDLLASISNISPHLMIVIASV”, for which the “soluble on expression in E. coli” value is “soluble”.

Take “VYSDPLREAIAEAEQLVAAAPHIETEADLLEGLQYLAGCIAGCMHLAFDYERDHPFLQSGTGPFTKMGLDNPDTLYFGTRLQANRDYVVSGRRGTTTDLSFQLLGGEYTDYNVPASQAAFDDRELDIAADGSFEWRLRPSAPGQLVIREVYGDWSQQRGTLAIARLDTVGTAPPPLTRELMEKRYATAGSQLVNRVKTWLQFPQWFYLNIPVNTMVAPRLTPGGLATQYSSAGHFELRPGQALVITVPVSDAPYLGFQLGSMWYISLDYINHQTSLNASQAQADPDGKVRIVVAEQNPGVTNWVETLGHRRGFLQFRWQRVSRELTEADGPTVELVDFDAIPAALPHYQHNKISEDDWRARIALRQRQIATRMLG”: the “soluble on expression in E. coli” value was “not soluble”.

For “MGSDKIHHHHHHMHYRQYGRTGRLISRFSLGLMRCLDSAAQLEAVLDAAWRLGINHFETAQSYGPSEAYLAQALHSLQLPRDQVIITTKILPDRDPQQMVEAVLRSRDRLGIDSIDCLALHGLNQPEHLQQAIAALPALQTLQAEGVFQHLGFSSHGDRELILEAIATDAFDFVSLHYYLLFQRHAPVIEAAAAKNLGIFIISPVDKGGLLHQPSAQLIEDCQPFSPLALNYRFLLSDRRITTLSFGAAKAEELAVLQDFVDADQPLSLEEAEAIARLEQVRQQRLGRDYCQQCYACLPCPEAINIPEVLRLRNLAIAHDMQAYGRYRYRMFENAGHWFPGQRGSRCTDCGDCLPRCPHHLPIADLVRDADQRLAGAPRRRLWGD”, the “soluble on expression in E. coli” value was “not soluble”.

Take “MAHHHHHHMRNGPKVLIALGNELKRGAASHQCKGDVARMYVNYLRQRYSMDEWNHVSNVNSFICEKNNIILIKPVTSLEKNSGLAIKNILNYLNCEDLKNVCIILPDLYRSIGKFKYKSYTKIYEKLGPDFYNILNSNIINNVLCNHFLQLCIGVSNYPNETKNAVAIALQECLSDGELKKIFKTFQLAEEYFHKKIMNGKVITTNYIHFKEKYPAMEPQKSFRRSTASRRYILDVYRHMYK”: the “soluble on expression in E. coli” value is “not soluble”.

For the sequence “MPNEQKRFVTGPAGRLETVVTLPEGAPRGLAIVAHPHPLYQGSMDNKIVYILSRAFIEQQYITVKFNFRGVGASEGSYAEGKGEIEDVMAVTQAMREQYDTGPEPLPLTLAGFSFGGAVQAHVAQQLKPSRLVLVAPSVERLQAPPVVDHARHILVIQGDQDTIVPLQSILNWAAPQTLPVTVIPGAEHFFHGKLHVLKNVILQSCSISQAATSLYP”, the “soluble on expression in E. coli” value was “not soluble”.

In the case of “MAHHHHHHSLVDVRQSIHSEHAKTLDTQALRREFLIENIFVADEYTMVYSHIDRIIVGGIMPVSHPVEIGGEVGKQLGVSRLLDRRELGVINIGGAGAIIVDGQRHDIGHRDALYIGKGAKELVFVSNEASRPAKFYYNCAPAHTAYPTKKVSPADVAPVTLGDNLTSNRRTINKYFVPDVLETCQLSMGLTELAPGNLWNTMPCHTHERRMEVYLYFNMEEDSCVFHMMGQPQETRHIVMRNEQAVISPSWSIHSGVGTKAYTFIWGMVGENQVFDDMDHVAVQDLREG”, the “soluble on expression in E. coli” value is recorded as “soluble”.

On to “MGSDKIHHHHHHMKKIAIFLPDLRAGGAEKVALLLSNEFVQKGCAVDVILCTAHGEFLSELDTRINVVDLKSPRLRNAFFPLLRYLKAERPDVLLALMWPLTLLAVTAFKFAKLPGRVVVSDHTTFSQAPLLKKKSTRIFFKLSLPMVYSFANARLAVSEGVANDLATLGNIKRSSITVLHNPVSSDTMRFTKEQNEESWQGFSGKKIVAVGALKWEKDYPTLLKAFALLLKKENAYLSIVGQGTLLSELEAIAEQLGIRKQVNFAGFSTMPSAWMASADLLVLSSSCEGFGNVIVESLDVGTAVVSTDCKSGPREILCDGKYGKLVPVGDVDALAQAMVESLNEQHDMDALKLRAAKFSVDKIAKQYLEVFR”, for which the “soluble on expression in E. coli” value was “not soluble”.

With “MSGGSSRRYPPELRERAVRMVAEIRGQHDSEWAAISEVARLLGVGCAETVRKWVRQAQVDAGARPGTTTEESAELKRLRRDNAELRRANAILKTASAFFAAELDRPAR”, the “soluble on expression in E. coli” value is reported as “soluble”.

On to “MSLKSNVYYEELAKQNAIKTEFLPPVRGQITDRNGTLLAINDLGFSISIKPYLSIKKSNKGILDKELSELTNLFPDLNASKLAEIYKRNDSYYNQDFIKVVDFIPYDEIISHYSELNLNKTIKIDPVVKRKYPFGKLASHIIGYVGKANLQDVQENEIAKLSNYTGKSGIERYYNDILQGEKGTRVYKVNALNQEVEQLSYTPAMSNDIELTIDIELQSYLTSLFEGNAGAAIIMNVNDGSILAAGSFPEYDLNPFVTGISFKDWDELSNSLDHPFTNKLINGYYPPGSVVKMGVGLSFLNSKNISPSTHYVCNGSIELGGRFFRCWNRSGHGPVDLKHAIKYSCDVYFYNGSLQVGIDQISETLSRIGFGVKTGVDLPSEFVGTLPSKEWKMQRYRQSWFQGDTLNTAIGQGNFLATPMQIARYTAQIAKSGEVIPHFLKSIENNNTTIENQMDENKKEIFTLFEKSQLPYIRDAMYAVANEQGGTSYRYLHNLDVKVAAKTGTAQVVGFSQTDKNRVDEKQFEYYTRSHAWLTSYAPYSKPKYVVTVLLEHGGRNITSGATVAKIYQKMIELGYFKEGHHHHHH”, for which the “soluble on expression in E. coli” value is recorded as “soluble”.
